Patent publication US20150071856A1 (UNIVERSITEIT MAASTRICHT, published 2015)
No end group written: not given here. alkyl = not defined here

What was measured:
[1] = target: T1, rFzd-1 (frizzled-1 receptor) (rat, UniProt Q08463 69-641); experiment: cell-based or functional assay
[2] = target: T2, rFzd-2 (frizzled-2 receptor) (rat, UniProt Q08464 29-570); experiment: cell-based or functional assay
mouse Fzd-2 = target: T3, mouse Fzd-2 (mouse, UniProt Q9JIP6 29-570); experiment: competition: UM207 (1.10^-7 M) pre-incubated on mouse tissue sections, competitor UM206-rhodamine
T3 construct: whole, on cells; also called frizzled-2 (mouse)
Experimental: (§1) Specificity of the binding site was confirmed by prior incubation of the tissue sections with UM207 (1.10⁻⁷ M) or recombinant Wnt3a (1.10⁻⁸ M). Both compounds completely abolished the binding of UM206-rhodamine to its receptors.

mouse Fzd-1 = target: T4, mouse Fzd-1 (mouse, UniProt O70421 69-642); experiment: as above
T4 construct: whole, on cells; also called frizzled-1 (mouse)
Experimental: as §1

[3] = target: T1, rFzd-1 (frizzled-1 receptor); experiment: cell-based or functional assay; remark: listed apart in the source
[4] = target: T2, rFzd-2 (frizzled-2 receptor); experiment: cell-based or functional assay; remark: listed apart in the source

T2 sequence (Q08464 29-570): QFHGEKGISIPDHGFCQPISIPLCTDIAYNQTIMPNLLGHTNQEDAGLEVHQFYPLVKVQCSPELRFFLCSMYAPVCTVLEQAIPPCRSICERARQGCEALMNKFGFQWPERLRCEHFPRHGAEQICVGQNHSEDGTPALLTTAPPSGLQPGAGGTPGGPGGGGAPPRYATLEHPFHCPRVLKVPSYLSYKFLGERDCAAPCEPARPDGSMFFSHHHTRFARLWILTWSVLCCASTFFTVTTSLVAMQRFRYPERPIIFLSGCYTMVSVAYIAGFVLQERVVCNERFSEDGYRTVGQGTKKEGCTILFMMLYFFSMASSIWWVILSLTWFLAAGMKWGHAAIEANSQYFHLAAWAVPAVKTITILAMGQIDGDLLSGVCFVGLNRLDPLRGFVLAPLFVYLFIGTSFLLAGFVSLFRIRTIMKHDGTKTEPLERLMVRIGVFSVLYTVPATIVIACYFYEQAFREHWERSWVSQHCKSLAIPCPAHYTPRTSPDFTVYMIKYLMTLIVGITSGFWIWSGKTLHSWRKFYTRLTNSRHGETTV
T1 sequence (Q08463 69-641): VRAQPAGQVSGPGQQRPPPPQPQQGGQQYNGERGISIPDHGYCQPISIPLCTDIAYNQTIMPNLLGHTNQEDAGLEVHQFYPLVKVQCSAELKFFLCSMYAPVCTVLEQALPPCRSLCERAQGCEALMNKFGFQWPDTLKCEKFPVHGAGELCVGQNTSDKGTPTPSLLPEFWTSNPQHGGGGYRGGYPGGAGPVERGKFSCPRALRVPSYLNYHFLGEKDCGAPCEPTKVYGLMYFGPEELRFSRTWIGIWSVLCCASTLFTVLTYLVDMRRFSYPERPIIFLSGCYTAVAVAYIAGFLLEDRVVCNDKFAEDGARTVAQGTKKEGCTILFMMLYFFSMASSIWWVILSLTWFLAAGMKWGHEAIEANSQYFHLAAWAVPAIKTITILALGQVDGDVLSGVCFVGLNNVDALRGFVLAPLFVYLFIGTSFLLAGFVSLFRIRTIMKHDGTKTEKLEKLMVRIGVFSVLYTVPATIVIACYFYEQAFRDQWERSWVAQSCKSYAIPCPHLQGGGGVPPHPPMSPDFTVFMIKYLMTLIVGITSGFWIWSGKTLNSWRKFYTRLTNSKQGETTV
T3 sequence (Q9JIP6 29-570): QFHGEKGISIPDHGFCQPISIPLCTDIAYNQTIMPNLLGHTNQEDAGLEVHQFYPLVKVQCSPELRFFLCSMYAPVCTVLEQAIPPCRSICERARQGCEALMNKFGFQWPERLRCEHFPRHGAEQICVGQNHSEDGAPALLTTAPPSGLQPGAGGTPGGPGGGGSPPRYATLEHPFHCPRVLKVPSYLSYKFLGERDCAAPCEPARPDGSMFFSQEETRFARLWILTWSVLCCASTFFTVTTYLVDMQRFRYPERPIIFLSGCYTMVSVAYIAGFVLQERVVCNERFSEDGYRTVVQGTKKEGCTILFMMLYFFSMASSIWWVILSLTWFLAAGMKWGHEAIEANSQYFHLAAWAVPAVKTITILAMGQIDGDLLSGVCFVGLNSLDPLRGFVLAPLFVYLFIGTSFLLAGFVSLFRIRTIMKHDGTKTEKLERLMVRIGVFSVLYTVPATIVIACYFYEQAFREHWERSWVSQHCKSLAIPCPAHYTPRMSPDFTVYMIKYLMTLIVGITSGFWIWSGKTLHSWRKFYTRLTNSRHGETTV
T4 sequence (O70421 69-642): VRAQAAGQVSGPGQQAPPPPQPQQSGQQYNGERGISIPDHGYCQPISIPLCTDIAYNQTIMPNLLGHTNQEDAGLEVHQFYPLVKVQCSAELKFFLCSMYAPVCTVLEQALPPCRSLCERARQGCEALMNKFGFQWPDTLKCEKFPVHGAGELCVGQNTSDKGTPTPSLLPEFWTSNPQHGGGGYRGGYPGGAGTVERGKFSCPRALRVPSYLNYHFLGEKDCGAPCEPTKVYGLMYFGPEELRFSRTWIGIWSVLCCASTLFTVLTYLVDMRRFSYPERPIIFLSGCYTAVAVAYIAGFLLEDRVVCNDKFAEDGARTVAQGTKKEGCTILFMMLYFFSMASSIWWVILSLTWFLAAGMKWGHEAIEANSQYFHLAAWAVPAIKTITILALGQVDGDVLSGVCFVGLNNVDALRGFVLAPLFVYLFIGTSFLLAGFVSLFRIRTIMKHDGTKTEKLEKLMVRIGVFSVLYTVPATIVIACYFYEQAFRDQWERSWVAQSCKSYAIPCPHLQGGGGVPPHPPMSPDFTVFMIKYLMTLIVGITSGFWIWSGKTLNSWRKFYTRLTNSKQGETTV

Q: Which “% of inhibition of Wnt3a-induced luciferase activity (peptide at 1.10^-9 M)” value (shortened to “% of inhibition … (peptide at 1.10^-9 M)”) [1] does the source give for CNKTSEGMDGC [UM206 - (label cut short in Table 3; taken as UM206 with the C-terminal Glu-Leu deleted)] here?
A: 18%

Q: And the “% of inhibition … (peptide at 1.10^-9 M)” value [2]?
A: 61.2%

Q: What does the source list for CAKTSEGMDGCEL [UM206 (2 N = A)]?
A: % of inhibition of Wnt3a-induced luciferase activity (peptide at 1.10^-9 M) [1]: 68%; % of inhibition of Wnt3a-induced luciferase activity (peptide at 1.10^-9 M) [2]: 79.5%

Q: For CNKTSEGMDGCAA [UM206 (12-13 EL = AA)], which “% of inhibition … (peptide at 1.10^-9 M)” value [1] is on record?
A: 66.8%

Q: What about the “% of inhibition … (peptide at 1.10^-9 M)” value [2] of the same binder?
A: 74.3%

Q: Which results are given for Ac-GIKECQYQFRHRRWNCSTVD-NH2 (cysteine pairing not given here)?
A: binding result (mouse Fzd-2): binds; binding result (mouse Fzd-1): binds; IC50, inhibition of Wnt3a (10^-9 M)-induced luciferase, HEK293-superTOPflash, single binding site fit [3]: 40 nM; IC50, inhibition of Wnt3a (10^-9 M)-induced luciferase, HEK293-superTOPflash, single binding site fit [4]: 15.2 nM

Q: What does the source list for Ac-CNKTSEGMDGCEL-NH2 (cysteine pairing not given here) [Peptide UM206 (linear), Ac-Cys-Asn-Lys-Thr-Ser-Glu-Gly-Met-Asp-Gly-Cys-Glu-Leu-NH2]?
A: IC50, inhibition of Wnt3a (10^-9 M)-induced luciferase, HEK293-superTOPflash, two-binding-state fit [3]: 2.1 nM; IC50, inhibition of Wnt3a (10^-9 M)-induced luciferase, HEK293-superTOPflash, two-binding-state fit [4]: 0.0169 nM; affinity ratio against rFzd-1, from reporter IC50 values [4]: ~100 fold; % of inhibition of Wnt3a-induced luciferase activity (peptide at 1.10^-9 M) [1]: 72.2%; % of inhibition of Wnt3a-induced luciferase activity (peptide at 1.10^-9 M) [2]: 75.1%

Q: CNKTSAGMDGCEL [UM206 (6 E = A)] was tested. Which “% of inhibition … (peptide at 1.10^-9 M)” value [1] did it give?
A: 70.8%

Q: What about the “% of inhibition … (peptide at 1.10^-9 M)” value [2] of the same binder?
A: 84.7%

Q: Which “% of inhibition … (peptide at 1.10^-9 M)” value [1] does the source give for CNVSSHGIDGCDL [peptide CNVSSHGIDGCDL (SEQ ID NO: 18), derived from the area of Wnt3a homologous to UM206] here?
A: 45.3%

Q: And the “% of inhibition … (peptide at 1.10^-9 M)” value [2]?
A: 62.4%

Q: Which “% of inhibition … (peptide at 1.10^-9 M)” value [1] does the source give for ANKTSEGMDGCEL [UM206 (1 C = A)] here?
A: 70.8%

Q: What about the “% of inhibition … (peptide at 1.10^-9 M)” value [2] of the same binder?
A: 82.6%

Q: Which “% of inhibition … (peptide at 1.10^-9 M)” value [1] does the source give for CNKTSEGMDGCEA [UM206 (13 L = A)] here?
A: 65.9%

Q: And the “% of inhibition … (peptide at 1.10^-9 M)” value [2]?
A: 86.5%

Q: With CNKTSEGMDGCAL [UM206 (12 E = A)] as the binder, how does the “% of inhibition … (peptide at 1.10^-9 M)” value [1] read?
A: 65.9%

Q: And the “% of inhibition … (peptide at 1.10^-9 M)” value [2]?
A: 85.5%

Q: For GSCSLKTCWLQLAD [UM208], which “IC50, inhibition of Wnt3a (10^-9 M)-induced luciferase, HEK293-superTOPflash, single binding site fit” value [3] is on record?
A: 2060 nM

Q: And the “IC50, inhibition of Wnt3a (10^-9 M)-induced luciferase, HEK293-superTOPflash, single binding site fit” value [4]?
A: 2110 nM

Q: How did the “% of inhibition … (peptide at 1.10^-9 M)” value [1] turn out when CNKASEAMAGCEL [UM206 (4 T = A, 7 G = A, 9 D = A)] was run?
A: 11.2%

Q: What about the “% of inhibition … (peptide at 1.10^-9 M)” value [2] of the same binder?
A: 17.5%

Q: Which “% of inhibition … (peptide at 1.10^-9 M)” value [1] does the source give for CNKTAEGMDGCEL [UM206 (5 S = A)] here?
A: 74.3%

Q: What about the “% of inhibition … (peptide at 1.10^-9 M)” value [2] of the same binder?
A: 87.3%

Q: For CNKTSEGMDGAEL [UM206 (11 C = A)], which “% of inhibition … (peptide at 1.10^-9 M)” value [1] is on record?
A: 67.2%

Q: And the “% of inhibition … (peptide at 1.10^-9 M)” value [2]?
A: 84.9%

Q: What does the source list for SNKTSEGMDGSEL [UM206 (C = S)]?
A: % of inhibition of Wnt3a-induced luciferase activity (peptide at 1.10^-9 M) [1]: 0%; % of inhibition of Wnt3a-induced luciferase activity (peptide at 1.10^-9 M) [2]: 17%

Q: Which results are given for C(alkyl)NKTSEGMDGC(alkyl)EL (reading uncertain; also: alkyl group not given here) [UM206 (C = C-alkyl)]?
A: % of inhibition of Wnt3a-induced luciferase activity (peptide at 1.10^-9 M) [1]: 1%; % of inhibition of Wnt3a-induced luciferase activity (peptide at 1.10^-9 M) [2]: 12.4%

Q: How did the “% of inhibition … (peptide at 1.10^-9 M)” value [1] turn out when CNKTSEGMAGCEL [UM206 (9 D = A)] was run?
A: 40.5%

Q: What about the “% of inhibition … (peptide at 1.10^-9 M)” value [2] of the same binder?
A: 60.5%

Q: Which “% of inhibition … (peptide at 1.10^-9 M)” value [1] does the source give for ANKTSEGMDGAEL [UM206 (C = A)] here?
A: 0%

Q: And the “% of inhibition … (peptide at 1.10^-9 M)” value [2]?
A: 8.39%

Q: How did the “% of inhibition … (peptide at 1.10^-9 M)” value [1] turn out when CNKTSEAMDGCEL [UM206 (7 G = A)] was run?
A: 52.6%

Q: What about the “% of inhibition … (peptide at 1.10^-9 M)” value [2] of the same binder?
A: 63.1%

Q: CNKASEGMDGCEL [UM206 (4 T = A)] was tested. Which “% of inhibition … (peptide at 1.10^-9 M)” value [1] did it give?
A: 28.1%

Q: What about the “% of inhibition … (peptide at 1.10^-9 M)” value [2] of the same binder?
A: 59.4%

Q: Which results are given for CNKTSEGADGCEL [UM206 (8 M = A)]?
A: % of inhibition of Wnt3a-induced luciferase activity (peptide at 1.10^-9 M) [1]: 67.6%; % of inhibition of Wnt3a-induced luciferase activity (peptide at 1.10^-9 M) [2]: 85%

Q: With CNKTSEGMDACEL [UM206 (10 G = A)] as the binder, how does the “% of inhibition … (peptide at 1.10^-9 M)” value [1] read?
A: 69.9%

Q: And the “% of inhibition … (peptide at 1.10^-9 M)” value [2]?
A: 83.3%

Q: Which “% of inhibition … (peptide at 1.10^-9 M)” value [1] does the source give for CNATSEGMDGCEL [UM206 (3 K = A)] here?
A: 70.8%

Q: What about the “% of inhibition … (peptide at 1.10^-9 M)” value [2] of the same binder?
A: 84.9%
